Assay results: US20210292396A1

Key:
Experiment in all cases: cell-based or functional assay
[1] = target: Env of HIV isolate 0330.v4.c3 (clade A) (HIV)
[2] = target: Env of HIV isolate 3168.v4.c10 (clade C) (HIV)
[3] = target: Env of HIV isolate 3301.v1.c24 (clade AC) (HIV)
[4] = target: Env of HIV isolate 3589.v1.c4 (clade AC) (HIV)
[5] = target: Env of HIV isolate 3817.v2.c59 (clade CD) (HIV)
[6] = target: Env of HIV isolate 5768.04 (clade B) (HIV)
[7] = target: Env of HIV isolate 6095.v1.c10 (clade ACD) (HIV)
[8] = target: Env of HIV isolate 6405.v4.c34 (clade D) (HIV)
[9] = target: Env of HIV isolate 6545.v4.c1 (clade AC) (HIV)
[10] = target: Env of HIV isolate 6644.v2.c33 (clade C) (HIV)
[11] = target: Env of HIV isolate 7165.18 (clade B) (HIV)
[12] = target: Env of HIV isolate BG505.W6M.C2 (clade A) (HIV)
[13] = target: Env of HIV isolate BJOX009000.02.4 (clade AE) (HIV)
[14] = target: Env of HIV isolate BX08.16 (clade B) (HIV)
[15] = target: Env of HIV isolate CAAN.A2 (clade B) (HIV)
[16] = target: Env of HIV isolate CNE30 (clade C in Table 7) (HIV)
[17] = target: Env of HIV isolate CNE40 (clade BC) (HIV)
[18] = target: Env of HIV isolate CNE7 (clade BC) (HIV)
[19] = target: Env of HIV isolate DJ263.8 (clade AG) (HIV)
[20] = target: Env of HIV isolate HO86.8 (clade B) (HIV)
[21] = target: Env of HIV isolate HT593.1 (clade B) (HIV)
[22] = target: Env of HIV isolate JRCSF.JB (clade B) (HIV)
[23] = target: Env of HIV isolate KER2008.12 (clade A) (HIV)
[24] = target: Env of HIV isolate KNH1209.18 (clade A) (HIV)
[25] = target: Env of HIV isolate MB201.A1 (clade A) (HIV)
[26] = target: Env of HIV isolate PVO.04 (clade B) (HIV)
[27] = target: Env of HIV isolate Q23.17 (clade A) (HIV)
[28] = target: Env of HIV isolate R1166.C1 (clade AE) (HIV)
[29] = target: Env of HIV isolate SC422.8 (clade B) (HIV)
[30] = target: Env of HIV isolate THRO.18 (clade B) (HIV)
[31] = target: Env of HIV isolate TRJO.58 (clade B) (HIV)
[32] = target: Env of HIV isolate ZM109.4 (clade C) (HIV)
[33] = target: Env of HIV isolate ZM135.10a (clade C) (HIV)
[34] = target: Env of HIV isolate ZM176.66 (clade C) (HIV)
[35] = target: Envelope protein of SVA.MLV (clade NA)
[36] = target: HIV Env of isolate 16936-2.21 (HIV)
[37] = target: HIV Env of isolate 247-23 (HIV)
[38] = target: HIV Env of isolate 288.38 (HIV)
[39] = target: HIV Env of isolate 3168.v4.c10 (HIV)
[40] = target: HIV Env of isolate 3337.v2.c6 (HIV)
[41] = target: HIV Env of isolate 426c (HIV)
[42] = target: HIV Env of isolate 6644.v2.c33 (HIV)
[43] = target: HIV Env of isolate 96ZM651.02 (HIV)
[44] = target: HIV Env of isolate CH119.10 (HIV)
[45] = target: HIV Env of isolate CH181.12 (HIV)
[46] = target: HIV Env of isolate DU151.02 (HIV)
[47] = target: HIV Env of isolate DU156.12 (HIV)
[48] = target: HIV Env of isolate DU422.01 (HIV)
[49] = target: HIV Env of isolate UG021.16 (HIV)
[50] = target: HIV Env of isolate ZM249.1 (HIV)

B1: ePGT121.18 (ePGT121.18.H1 VH and ePGT121.17.L1 VL) (antibody, V domains shown)
VH: QMQLQESGPGLVKPGETLSLTCSVSGASISSSYWSWLRETPGKGLEWIGYTHHSGDTNYAPSLKSRVHLGLHPSKNQVSLSLTSVTAADTAVYYCARTLHGRRIYGVVAFNEYYTYFYWPTWGKGTQVTVSS
VL: SDISVAPGETVRITCGGESIGSRAVQWYQHRPGQAPRLIIYNNQDRPPGIPERFSGSPDIDFGTTATLTISNVEAGDEATYYCHIWDSRRPTNWELGPGTTLTVL
Q: Which results are given for B1?
A: IC50, pseudovirus neutralization [1]: 0.003 µg/mL; IC50, pseudovirus neutralization [2]: 0.012 µg/mL; IC50, pseudovirus neutralization [3]: 0.003 µg/mL; IC50, pseudovirus neutralization [4]: 0.252 µg/mL; IC50, pseudovirus neutralization [5]: 0.546 µg/mL; IC50, pseudovirus neutralization [6]: 0.004 µg/mL; IC50, pseudovirus neutralization [7]: 0.006 µg/mL; IC50, pseudovirus neutralization [8]: 0.001 µg/mL; IC50, pseudovirus neutralization [9]: > 50 µg/mL; IC50, pseudovirus neutralization [10]: 0.002 µg/mL; IC50, pseudovirus neutralization [11]: 0.001 µg/mL; IC50, pseudovirus neutralization [12]: 0.014 µg/mL; IC50, pseudovirus neutralization [13]: 0.042 µg/mL; IC50, pseudovirus neutralization [14]: 0.003 µg/mL; IC50, pseudovirus neutralization [15]: 0.002 µg/mL; IC50, pseudovirus neutralization [16]: 0.005 µg/mL; IC50, pseudovirus neutralization [17]: 0.015 µg/mL; IC50, pseudovirus neutralization [18]: 0.003 µg/mL; IC50, pseudovirus neutralization [19]: 0.002 µg/mL; IC50, pseudovirus neutralization [20]: > 50 µg/mL; IC50, pseudovirus neutralization [21]: 0.003 µg/mL; IC50, pseudovirus neutralization [22]: 0.003 µg/mL; IC50, pseudovirus neutralization [23]: 0.003 µg/mL; IC50, pseudovirus neutralization [24]: 0.001 µg/mL; IC50, pseudovirus neutralization [25]: 0.001 µg/mL; IC50, pseudovirus neutralization [26]: 0.003 µg/mL; IC50, pseudovirus neutralization [27]: 0.002 µg/mL; IC50, pseudovirus neutralization [28]: > 50 µg/mL; IC50, pseudovirus neutralization [29]: 0.005 µg/mL; IC50, pseudovirus neutralization [30]: > 50 µg/mL; IC50, pseudovirus neutralization [31]: 0.003 µg/mL; IC50, pseudovirus neutralization [32]: 7.26 µg/mL; IC50, pseudovirus neutralization [33]: 0.026 µg/mL; IC50, pseudovirus neutralization [34]: 0.017 µg/mL; IC50, pseudovirus neutralization [35]: > 50 µg/mL; IC80, pseudovirus neutralization (M1) [36]: 0.003 µg/mL; IC80, pseudovirus neutralization (M2) [36]: 0.005 µg/mL; IC80, pseudovirus neutralization (M1) [37]: > 50 µg/mL; IC80, pseudovirus neutralization (M2) [37]: > 50 µg/mL; IC80, pseudovirus neutralization (M1) [38]: 0.002 µg/mL; IC80, pseudovirus neutralization (M2) [38]: 0.002 µg/mL; IC80, pseudovirus neutralization (M1) [39]: 0.034 µg/mL; IC80, pseudovirus neutralization (M2) [39]: 0.045 µg/mL; IC80, pseudovirus neutralization (M1) [40]: 1.25 µg/mL; IC80, pseudovirus neutralization (M2) [40]: 1.43 µg/mL; IC80, pseudovirus neutralization (M1) [41]: 0.302 µg/mL; IC80, pseudovirus neutralization (M2) [41]: 0.337 µg/mL; IC80, pseudovirus neutralization (M1) [42]: 0.005 µg/mL; IC80, pseudovirus neutralization (M2) [42]: 0.006 µg/mL; IC80, pseudovirus neutralization (M1) [43]: 0.002 µg/mL; IC80, pseudovirus neutralization (M2) [43]: 0.003 µg/mL; IC80, pseudovirus neutralization (M1) [44]: 0.01 µg/mL; IC80, pseudovirus neutralization (M2) [44]: 0.014 µg/mL; IC80, pseudovirus neutralization (M1) [45]: 0.003 µg/mL; IC80, pseudovirus neutralization (M2) [45]: 0.004 µg/mL; IC80, pseudovirus neutralization (M1) [46]: 0.003 µg/mL; IC80, pseudovirus neutralization (M2) [46]: 0.003 µg/mL; IC80, pseudovirus neutralization (M1) [47]: 0.003 µg/mL; IC80, pseudovirus neutralization (M2) [47]: 0.003 µg/mL; IC80, pseudovirus neutralization (M1) [48]: 0.013 µg/mL; IC80, pseudovirus neutralization (M2) [48]: 0.013 µg/mL; IC80, pseudovirus neutralization (M1) [49]: 0.02 µg/mL; IC80, pseudovirus neutralization (M2) [49]: 0.019 µg/mL; IC80, pseudovirus neutralization (M1) [50]: 0.992 µg/mL; IC80, pseudovirus neutralization (M2) [50]: 0.874 µg/mL

B2: ePGT121.18.17 (ePGT121.18.H17 VH and ePGT121.17.L1 VL) (antibody, V domains shown)
VH: QMQLQESGPGLVKPGETLSLTCSVSGASISSSYWSWLRETPGKGLEWIGYTHHSGDTNYAPSLKSRVTIGLDPSKNQVSLSLTSVTAADTAVYYCARTLHGRRIYGVVAFNEYYTYFYWPTWGKGTQVTVSS
VL: SDISVAPGETVRITCGGESIGSRAVQWYQHRPGQAPRLIIYNNQDRPPGIPERFSGSPDIDFGTTATLTISNVEAGDEATYYCHIWDSRRPTNWELGPGTTLTVL
Q: Which IC50, pseudovirus neutralization [1] does the source give for B2 here?
A: 0.012 µg/mL

Q: And the IC50, pseudovirus neutralization [2]?
A: 0.053 µg/mL

Q: What about the IC50, pseudovirus neutralization [3] of the same binder?
A: 0.009 µg/mL

Q: And the IC50, pseudovirus neutralization [4]?
A: 2.73 µg/mL

Q: What about the IC50, pseudovirus neutralization [5] of the same binder?
A: 4.75 µg/mL

Q: And the IC50, pseudovirus neutralization [6]?
A: 0.029 µg/mL

Q: And the IC50, pseudovirus neutralization [7]?
A: 0.045 µg/mL

Q: What about the IC50, pseudovirus neutralization [8] of the same binder?
A: 0.004 µg/mL

Q: What about the IC50, pseudovirus neutralization [9] of the same binder?
A: > 50 µg/mL

Q: And the IC50, pseudovirus neutralization [10]?
A: 0.005 µg/mL

Q: And the IC50, pseudovirus neutralization [11]?
A: 0.006 µg/mL

Q: What about the IC50, pseudovirus neutralization [12] of the same binder?
A: 0.047 µg/mL

Q: And the IC50, pseudovirus neutralization [13]?
A: 0.156 µg/mL

Q: What about the IC50, pseudovirus neutralization [14] of the same binder?
A: 0.004 µg/mL

Q: And the IC50, pseudovirus neutralization [15]?
A: 0.004 µg/mL

Q: What about the IC50, pseudovirus neutralization [16] of the same binder?
A: 0.018 µg/mL

Q: And the IC50, pseudovirus neutralization [17]?
A: 0.036 µg/mL

Q: And the IC50, pseudovirus neutralization [18]?
A: 0.007 µg/mL

Q: What about the IC50, pseudovirus neutralization [19] of the same binder?
A: 0.014 µg/mL

Q: And the IC50, pseudovirus neutralization [20]?
A: > 50 µg/mL

Q: And the IC50, pseudovirus neutralization [21]?
A: 0.014 µg/mL

Q: What about the IC50, pseudovirus neutralization [22] of the same binder?
A: 0.007 µg/mL

Q: What about the IC50, pseudovirus neutralization [23] of the same binder?
A: 0.01 µg/mL

Q: What about the IC50, pseudovirus neutralization [24] of the same binder?
A: 0.003 µg/mL

Q: And the IC50, pseudovirus neutralization [25]?
A: 0.004 µg/mL

Q: And the IC50, pseudovirus neutralization [26]?
A: 0.009 µg/mL

Q: And the IC50, pseudovirus neutralization [27]?
A: 0.006 µg/mL

Q: What about the IC50, pseudovirus neutralization [28] of the same binder?
A: > 50 µg/mL

Q: And the IC50, pseudovirus neutralization [29]?
A: 0.016 µg/mL

Q: And the IC50, pseudovirus neutralization [30]?
A: > 50 µg/mL

Q: What about the IC50, pseudovirus neutralization [31] of the same binder?
A: 0.023 µg/mL

Q: What about the IC50, pseudovirus neutralization [32] of the same binder?
A: 8.44 µg/mL

Q: What about the IC50, pseudovirus neutralization [33] of the same binder?
A: 0.145 µg/mL

Q: What about the IC50, pseudovirus neutralization [34] of the same binder?
A: 0.122 µg/mL

Q: And the IC50, pseudovirus neutralization [35]?
A: > 50 µg/mL

Q: And the IC80, pseudovirus neutralization [36]?
A: 0.011 µg/mL

Q: What about the IC80, pseudovirus neutralization [37] of the same binder?
A: > 50 µg/mL

Q: What about the IC80, pseudovirus neutralization [38] of the same binder?
A: 0.003 µg/mL

Q: And the IC80, pseudovirus neutralization [39]?
A: 0.171 µg/mL

Q: And the IC80, pseudovirus neutralization [40]?
A: 1.34 µg/mL

Q: And the IC80, pseudovirus neutralization [41]?
A: 1 µg/mL

Q: What about the IC80, pseudovirus neutralization [42] of the same binder?
A: 0.015 µg/mL

Q: And the IC80, pseudovirus neutralization [43]?
A: 0.006 µg/mL

Q: What about the IC80, pseudovirus neutralization [44] of the same binder?
A: 0.028 µg/mL

Q: And the IC80, pseudovirus neutralization [45]?
A: 0.011 µg/mL

Q: What about the IC80, pseudovirus neutralization [46] of the same binder?
A: 0.005 µg/mL

Q: And the IC80, pseudovirus neutralization [47]?
A: 0.006 µg/mL

Q: And the IC80, pseudovirus neutralization [48]?
A: 0.036 µg/mL

Q: And the IC80, pseudovirus neutralization [49]?
A: 0.078 µg/mL

Q: And the IC80, pseudovirus neutralization [50]?
A: 4.25 µg/mL
